The record followed here is patent US20220056131A1 (MacroGenics, published 2022).

Positions count from the first letter of the chain named. In names and notes the source's numbering stands.

Test [1] addresses T1, soluble cynomolgus monkey CD3 (cynomolgus monkey).
T1 chain: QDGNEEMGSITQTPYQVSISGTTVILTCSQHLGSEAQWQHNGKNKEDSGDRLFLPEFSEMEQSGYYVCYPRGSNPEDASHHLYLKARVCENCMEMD
Nature of the test: bispecific binding ELISA with soluble cynomolgus CD3 and soluble human B7H3 (sheet title 'sCynCD3-shB7H3 Bispecific Binding Elisa'); format not described, OD450.

The target in test [2] is T2, epidermal growth factor receptor (EGFR) on A498 kidney cancer cells or A431 epidermoid carcinoma cells (UniProt P00533 25-1210, limits assumed).
T2 construct: whole, on cells
Nature of the test: flow cytometry, binding to A498 kidney cancer cells, MFI.

The target of test [3] is soluble human CD3 (extracellular domain of human CD3) (human). Nature of the test: capture ELISA, plate coated with 1 µg/ml shCD3, OD450.
Chain of soluble human CD3 (extracellular domain of human CD3) (human) (P07766 23-126, chain 1 of 2): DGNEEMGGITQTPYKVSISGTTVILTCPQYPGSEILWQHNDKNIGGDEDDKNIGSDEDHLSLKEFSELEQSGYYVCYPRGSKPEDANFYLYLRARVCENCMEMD
Chain of soluble human CD3 (extracellular domain of human CD3) (human) (P04234 22-105, chain 2 of 2, further chain): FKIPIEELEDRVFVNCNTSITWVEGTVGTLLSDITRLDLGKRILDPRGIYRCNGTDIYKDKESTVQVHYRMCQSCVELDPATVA
Test [4] shares this target. As to the kind of experiment: capture ELISA, plate coated with 0.5 µg/ml shCD3, OD450.
Test [5] shares this target. As to the kind of experiment: capture ELISA, plate coated with 1 µg/ml soluble human CD3, OD450.
The target of test [6] is T1, soluble cynomolgus monkey CD3. As to the kind of experiment: capture ELISA, plate coated with 1 µg/ml soluble cynomolgus monkey CD3, OD450.
For test [7], the target named is soluble human CD3 (extracellular domain of human CD3) (human). Nature of the test: BIACORE SPR, capture with anti-EK antibodies, bivalent fit.
Test [8] addresses T1, soluble cynomolgus monkey CD3. Described as above.

B1: B7-H3-2-h-mAb2 DART diabody (bispecific antibody)
chain 1: DIQLTQSPSFLSASVGDRVTITCKASQNVDTNVAWYQQKPGKAPKALIYSASYRYSGVPSRFSGSGSGTDFTLTISSLQPEDFATYYCQQYNNYPFTFGQGTKLEIKGGGGSGGGGEVQLVESGGGLVQPGGSLRLSCAASGFTFNTYAMNWVRQAPGKGLEWVARIRSKYNNYATYYADSVKDRFTISRDDSKNSLYLQMNSLKTEDTAVYYCVRHGNFGNSYVSWFAYWGQGTLVTVSSGGCGGGEVAALEKEVAALEKEVAALEKEVAALEK
chain 2: QAVVTQEPSLTVSPGGTVTLTCRSSTGAVTTSNYANWVQQKPGQAPRGLIGGTNKRAPWTPARFSGSLLGGKAALTITGAQAEDEADYYCALWYSNLWVFGGGTKLTVLGGGGSGGGGEVQLVESGGGLVQPGGSLRLSCAASGFTFSSFGMHWVRQAPGKGLEWVAYISSDSSAIYYADTVKGRFTISRDNAKNSLYLQMNSLRDEDTAVYYCGRGRENIYYGSRLDYWGQGTTVTVSSGGCGGGKVAALKEKVAALKEKVAALKEKVAALKE
notes: Two-chain diabody, hBRCA84D (anti-B7-H3) x h-mAb2
B1: the concentration for a half-maximal effect (EC50 (read off the curve)) in test [1] was approximately 0.03 mg/L.

B2: 4420 x huXR32 (bispecific antibody)
4420VL-hXR32VH-E coil: DVVMTQTPFSLPVSLGDQASISCRSSQSLVHSNGNTYLRWYLQKPGQSPKVLIYKVSNRFSGVPDRFSGSGSGTDFTLKISRVEAEDLGVYFCSQSTHVPWTFGGGTKLEIKGGGSGGGGEVQLVESGGGLVQPGGSLRLSCAASGFTFNTYAMNWVRQAPGKGLEWVARIRSKYNNYATYYADSVKDRFTISRDDSKNSLYLQMNSLKTEDTAVYYCVRHGNFGNSYVSWFAYWGQGTLVTVSSGGCGGGEVAALEKEVAALEKEVAALEKEVAALEK
hXR32VL-4420VH-K coil: QAVVTQEPSLTVSPGGTVTLTCRSSTGAVTTSNYANWVQQKPGQAPRGLIGGTNKRAPWTPARFSGSLLGGKAALTITGAQAEDEADYYCALWYSNLWVFGGGTKLTVLGGGGSGGGGEVKLDETGGGLVQPGRPMKLSCVASGFTFSDYWMNWVRQSPEKGLEWVAQIRNKPYNYETYYSDSVKGRFTISRDDSKSSVYLQMNNLRVEDMGIYYCTGSYYGMDYWGQGTSVTVSSGGCGGGKVAALKEKVAALKEKVAALKEKVAALKE
Turning to B2, the binding result in test [2] is “no binding”.

B3: chimeric variant of mAb2 antibody (ch-mAb2) (antibody, V domains shown)
VH: EVKLLESGGGLVQPKGSLKLSCAASGFTFNTYAMNWVRQAPGKGLEWVARIRSKYNNYATYYADSVKDRFTISRDDSQSILYLQMNNLKTEDTAMYYCVRHGNFGNSYVSWFAYWGQGTLVTVSA
VL: QAVVTQESALTTSPGETVTLTCRSSTGAVTTSNYANWVQEKPDHLFTGLIGGTNKRAPGVPARFSGSLIGDKAALTITGAQTEDEAIYFCALWYSNLWVFGGGTKLTVLG
notes: also called chimeric mAb2; mAb2 chimeric antibody
Take B3: the EC50 (read off the curve) in test [3] was 0.03 mg/L; in test [4], 0.03 mg/L; in test [5], 0.03 mg/L; in test [6], approximately 0.03 mg/L. The Kd in test [7] is 0.0147 µM; in test [8], 0.0144 µM. The kon came out at 170000 M⁻¹ s⁻¹ in test [7] and 160000 M⁻¹ s⁻¹ in test [8].

B4: h-mAb2VH-8 HC / ch-mAb2 LC (antibody, V domains shown)
VH: B3 VH with K3Q, L5V, K15G, K19R, Q78K, S79N, I80S, N87S, M95V, A125S
VL: B3 VL
notes: also called ch-mAb2 LC / h-mAb2VH-8 HC
Turning to B4, the concentration for a half-maximal effect (EC50 (read off the curve)) in test [5] is 0.03 mg/L; in test [6], approximately 0.03 mg/L.

B5: antibody having an h-mAb2 VL-8 light chain and the heavy chain of the mAb2 chimeric antibody (antibody, V domains shown)
VH: B3 VH
VL: QAVVTQEPSLTVSPGGTVTLTCRSSTGAVTTSNYANWVQEKPGQAPRGLIGGTNKRAPWTPARFSGSLLGGKAALTITGAQAEDEADYYCALWYSNLWVFGGGTKLTVLG
Regarding B5, the concentration giving a half-maximal response (EC50 (read off the curve)) stood at 0.03 mg/L in test [3] and 0.04 mg/L in test [4].

B6: humanized mAb2 (h-mAb2) (antibody, V domains shown)
VH: B3 VH with K3Q, L5V, K15G, K19R, Q78K, S79N, I80S, N87S, M95V, A125S
VL: B5 VL with E40Q
notes: also called humanized variant of mAb2
In the case of B6, the concentration giving a half-maximal response (EC50 (read off the curve)) was 0.03 mg/L in test [5] and approximately 0.03 mg/L in test [6]. In addition, the figures for the Kd in test [7] and in test [8] were 0.02 µM and 0.0241 µM, respectively. The on-rate constant (kon) in test [7] came out at 190000 M⁻¹ s⁻¹; in test [8], 170000 M⁻¹ s⁻¹.

B7: antibody having an h-mAb2 VL-6 light chain and the heavy chain of the mAb2 chimeric antibody (antibody, V domains shown)
VH: B3 VH
VL: B5 VL with E40Q
notes: also called h-mAb2 VL-6 light chain antibody (Kabat F36V and T46G)
Turning to B7, the EC50 (read off the curve) is 0.04 mg/L in test [4], 0.03 mg/L in test [5] and approximately 0.03 mg/L in test [6].
